Results reported in paper PMC8252471, “Rerouting and Improving Dauc‐8‐en‐11‐ol Synthase from Streptomyces venezuelae to a High Yielding Biocatalyst” (Chemistry (Weinheim an Der Bergstrasse, Germany), 2021).
Substitutions are numbered along the chain they refer to. Names may count otherwise.

B1: DcS (dauc-8-en-11-ol synthase; formerly isodauc-8-en-11-ol synthase, IdS) (Streptomyces venezuelae ATCC 10712) (protein)
chain: MTVRAVELPQLWMPYPLRVNPYLSALREESETWAREMGMLGGEGPSARGAIWTRSQFHAMTVELLTAWTLPDASLAGLRLNHRFNIWALAWDDYFASTFKQTGDLPGALDFTARLHAFLRPEADARSPEPVNAVERGIADLQKHLFPPRLAHWRQEFNLALAHYIDAGVQELTNSRGGRVPHLIEYAPFRRESFAAHTAPYSVELATGARIPEQLRHTRTVHALLDAFMDVMGLANDVASYEREVHEERDVNNLVVVIGTSLGITLHQAVPAALHMVNARMRDFEHLRHHELPPLVDRFGLRPDEREELETWLGGAASFLSGLHAWYTGAPRYAPTDHSVPEQRQRGGSEGAADRHAPAASSLARGAEAQTCGPTASAGSA
notes: motifs: D92 in 92DDYFA, R190, N236 in 236NDVASYERE, H58, H197, Y241
B2: DcS (dauc-8-en-11-ol synthase; formerly isodauc-8-en-11-ol synthase, IdS) (Streptomyces venezuelae ATCC 10712; H197F/Y241F) (protein)
chain: B1 chain with H197F, Y241F
notes: motifs: D92 in 92DDYFA, R190, N236 in 236…, H58, H197, Y241

Substrate: CC(C)=CCC/C(C)=C/CC/C(C)=C/CO[P@@](=O)(O)OP(=O)(O)O
Assay: enzyme kinetics
Assay type: biochemical, Streptomyces venezuelae

Row | Protein | Km | kcat
1 | B1 | 2.90 ± 0.02 mM | 35.6 ± 2.9 s⁻¹
2 | B2 | 5.95 ± 0.02 mM | 65.5 ± 8.6 s⁻¹
